Data: patent US20130142799A1 (Amgen, published 2013)

Target: T1, Tie2-Fc (human, UniProt Q02763 23-748)
T1 construct: extracellular domain; Bought reagent; Allophycocyanin-conjugated in the HTRF assay; also called hTie2-Fc; human Tie2-Fc; not shown: Fc portion of the bought Tie2-Fc
Experiment: ELISA at one concentration on conditioned medium with N-terminal hAng-2 (aa 1-254, 6xHis); O.D. 370; control pCDNA3 vector medium
Experimental: The binding epitope of anti-Ang-2 antibodies and peptibodies was determined by their ability to bind the three versions of human hAng-2 by ELISA according to the following protocol: a high-binding 96-well assay plate was coated with 100 μl of conditioned media per well, and incubated at 37° C. for 1 hour. Conditioned media was aspirated, and the plate was blocked with 200 μl per well of 5% BSA in PBS at room temperature for 1 hour. The blocking solution was then aspirated. […] The wells were washed 4 times with 200 μl of 0.1% Tween in PBS. 100 μl per well of HRP-conjugated goat anti-human IgG or goat anti-mouse IgG were added, and incubated at room temperature for 45 minutes. The wells were then washed with 200 μl of 0.1% Tween in PBS 4 times. 100 μl per well of TMB substrate was then added. O.D. was read at 370 nm.

T1 sequence (Q02763 23-748): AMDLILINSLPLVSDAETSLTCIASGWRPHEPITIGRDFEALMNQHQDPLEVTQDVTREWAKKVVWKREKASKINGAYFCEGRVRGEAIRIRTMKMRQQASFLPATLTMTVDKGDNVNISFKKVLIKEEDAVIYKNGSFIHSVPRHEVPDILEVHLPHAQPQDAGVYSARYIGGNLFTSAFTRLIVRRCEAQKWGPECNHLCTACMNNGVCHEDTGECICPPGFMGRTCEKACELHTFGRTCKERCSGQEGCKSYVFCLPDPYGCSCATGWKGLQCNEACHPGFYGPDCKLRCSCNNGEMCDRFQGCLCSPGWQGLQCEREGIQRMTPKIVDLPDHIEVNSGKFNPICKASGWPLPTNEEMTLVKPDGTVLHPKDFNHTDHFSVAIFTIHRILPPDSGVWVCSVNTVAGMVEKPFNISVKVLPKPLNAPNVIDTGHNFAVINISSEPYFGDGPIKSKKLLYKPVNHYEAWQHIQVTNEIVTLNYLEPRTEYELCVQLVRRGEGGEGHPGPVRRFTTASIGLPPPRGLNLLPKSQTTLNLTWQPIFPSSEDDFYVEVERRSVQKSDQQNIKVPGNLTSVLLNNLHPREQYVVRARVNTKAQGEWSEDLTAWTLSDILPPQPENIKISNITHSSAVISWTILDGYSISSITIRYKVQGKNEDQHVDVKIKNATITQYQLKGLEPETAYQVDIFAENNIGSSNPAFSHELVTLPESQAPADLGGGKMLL

binding result: no binding (tested: 1 µg/ml)
B1: N-term hAng2 (aa 1-254) (ligand)
chain: YNNFRKSMDSIGKKQYQVQHGSCSYTFLLPEMDNCRSSSSPYVSNAVQRDAPLEYDDSVQRLQVLENIMENNTQWLMKLENYIQDNMKKEMVEIQQNAVQNQTAVMIEIGTNLLNQTAEQTRKLTDVEAQVLNQTTRLELQLLEHSLSTNKLEKQILDQTSEINKLQDKNSFLEKKVLAMEDKHIIQLQSIKEEKDQLQVLVSKQNSIIEELEKKIVTATVNNSVLQKQQHDLMETHHHHHH
notes: also called N-terminal human Ang-2
